Test results: article PMC2475692

What was measured:
[1] = target: YFP-EF-preIQ-IQ (CaV1.3 α1 C-terminal fragment, amino acids 1453–1623) (human) (UniProt Q01668); assay: FRET or BRET
[2] = target: YFP-EF-preIQ-IQ-PCRD (CaV1.3 α1 C-terminal fragment, amino acids 1453–1664) (human); assay: FRET or BRET
Chain of YFP-EF-preIQ-IQ-PCRD (CaV1.3 α1 C-terminal fragment, amino acids 1453–1664) (human) (Q01668 1453-1664): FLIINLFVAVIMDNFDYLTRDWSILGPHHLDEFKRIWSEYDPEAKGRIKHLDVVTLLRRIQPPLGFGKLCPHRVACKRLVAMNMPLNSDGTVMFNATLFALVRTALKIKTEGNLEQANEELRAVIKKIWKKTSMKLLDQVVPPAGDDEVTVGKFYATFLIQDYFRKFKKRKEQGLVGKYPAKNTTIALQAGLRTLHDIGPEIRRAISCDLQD

Chain of YFP-EF-preIQ-IQ (CaV1.3 α1 C-terminal fragment, amino acids 1453–1623) (human) (Q01668 1468-1638): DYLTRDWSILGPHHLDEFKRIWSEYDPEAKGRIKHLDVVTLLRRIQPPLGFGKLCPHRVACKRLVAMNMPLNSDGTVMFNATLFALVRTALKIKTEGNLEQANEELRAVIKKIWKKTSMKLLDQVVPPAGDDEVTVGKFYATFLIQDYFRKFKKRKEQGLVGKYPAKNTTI

“CFP-labeled calmodulin (from UniProt P0DP23 1-149) (natural protein)” showed a N FRET [1] of 0.185 and a N FRET [2] of 0.235.
